# Measured values from patent US20240052029A1 (BIOHENG THERAPEUTICS, published 2024).
# Numbering of substitutions follows the chain as printed.
# B1: 6V8 anti-ROR1 humanized scFv, as chimeric antigen receptor on CAR-T cells (scFv)
# scFv: ETTLTQSPATLSVSPGEKVIIRCITSTDIDEDMNWYQQKPGQPPKLLISEGNTLRPGVPSRFSGSGSGTDFTLTISSLQPEDVATYYCLQSNNMPLTFGAGTKLELKGGGGSGGGGSGGGGSQVQLQESGPGLVKPSQTLSLTCTVTAYSITSDYAWNWIRQFPGNKLEWMGYISYSGFTRYNPSLKSRISITRDTSKNQFFLKLNFVTTEDTATYYCARGEITYYFDYWGQGTTLTVSSESKYGPPCPPCPIYIWAPLAGTCGVLLLSLVITLYCKRGRKKLLYIFKQPFMRPVQTTQEEDGCSCRFPEEEEGGCELRVKFSRSADAPAYQQGQNQLYNELNLGRREEYDVLDKRRGRDPEMGGKPRRKNPQEGLYNELQKDKMAEAYSEIGMKGERRRGKGHDGLYQGLSTATKDTYDALHMQALPPR
# notes: Humanized from murine ROR1-4
# B2: 6V9 anti-ROR1 humanized scFv, as chimeric antigen receptor on CAR-T cells (scFv)
# scFv: B1 scFv with T147S, M171I, F201Y, F202Y, K204Q, F207S
# notes: Humanized from murine ROR1-4
# B3: 6V10 anti-ROR1 humanized scFv, as chimeric antigen receptor on CAR-T cells (scFv)
# scFv: B1 scFv with K18R, V19A
# notes: Humanized from murine ROR1-4
# B4: 6V11 anti-ROR1 humanized scFv, as chimeric antigen receptor on CAR-T cells (scFv)
# scFv: B1 scFv with K18R, V19A, T147S, M171I, F201Y, F202Y, K204Q, F207S
# notes: Humanized from murine ROR1-4
# B5: 6V12 anti-ROR1 humanized scFv, as chimeric antigen receptor on CAR-T cells (scFv)
# scFv: B1 scFv with G64S
# notes: Humanized from murine ROR1-4
# B6: 6V13 anti-ROR1 humanized scFv, as chimeric antigen receptor on CAR-T cells (scFv)
# scFv: B1 scFv with G64S, T147S, M171I, F201Y, F202Y, K204Q, F207S
# notes: Humanized from murine ROR1-4
# Target: T1, ROR1-hFc (Acrobio brand, Cat. No. R01-H5250) protein (UniProt Q01973 30-403)
# T1 construct: Bought reagent; not shown: hFc (human Fc, detected with anti-human IgG Fc)
# Assay: flow cytometry: CAR-T cells stained with ROR1-hFc, then PE anti-human IgG Fc
# Protocol: After culturing at 37° C. and 5% CO₂ for 11 days, the above CAR-T cells, ROR1-4 CAR-T-2 cells (replacing the CD8α hinge region in the ROR1-4 CAR-T cells with the IgG4 hinge region) and Wild-type T cells (NT, used as negative control) were incubated with ROR1-hFc (Acrobio brand, Cat. No. R01-H5250) protein for 45 minutes, and after washing, PE anti-human IgG Fc Antibody (Biolegend brand, Cat. No. 410708) was added to incubate for 30 minutes. The expression level of the anti-ROR1 single chain antibody on the CAR-T cells was detected by flow cytometry, and the results are shown in FIG. 4.
# T1 sequence (Q01973 30-403): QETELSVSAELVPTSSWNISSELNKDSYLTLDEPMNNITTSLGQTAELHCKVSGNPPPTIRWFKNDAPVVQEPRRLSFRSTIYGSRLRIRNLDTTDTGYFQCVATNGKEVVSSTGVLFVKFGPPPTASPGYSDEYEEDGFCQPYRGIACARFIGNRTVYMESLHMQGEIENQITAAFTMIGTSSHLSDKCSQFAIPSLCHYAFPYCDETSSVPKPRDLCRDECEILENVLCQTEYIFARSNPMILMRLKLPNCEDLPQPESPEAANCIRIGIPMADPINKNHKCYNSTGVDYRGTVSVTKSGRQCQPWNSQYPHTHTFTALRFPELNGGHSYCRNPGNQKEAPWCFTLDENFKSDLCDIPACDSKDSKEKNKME
row,Binder,binding result
1,B1,binds
2,B2,binds
3,B3,binds
4,B4,binds
5,B5,binds
6,B6,binds
